Laboratory results as given in paper PMC3350567 (Structure(London, England:1993), 2012).
Each block holds one binder with its values, some of them ahead of it.

B5: CCT4, subunit of bovine TRiC/CCT (bTRiC) (natural protein, Bos taurus, UniProt Q2T9X2 1-542, looked up)
chain: MPENVAPRTGPPAGAAGAAGGRGKSAYQDRDKPAQIRFSNISAAKAVADAIRTSLGPKGMDKMIQDGKGDVTITNDGATILKQMQVLHPAARMLVELSKAQDIEAGDGTTSVVIIAGSLLDSCTKLLQKGIHPTIISESFQKALEKGIEILTDMSRPEELSDRETLLNSAATSLNSKVVSQYSSLLSPMSVDAVMKVIDPATATSVDLRDIKIVKKLGGTIDDCELVEGLVLTQKVANSGITRVEKAKIGLIQFCLSAPKTDMDNQIVVSDYVQMDRVLREERAYILNLVKQIKKTGCNVLLIQKSILRDALSDLALHFLNKMKIMVVKDIEREDIEFICKTIGTKPVAHVDQFTADMLGSAELAEEVSLNGSGKLIKITGCASPGKTVTIVVRGSNKLVIEEAERSIHDALCVIRCLVKKRALIAGGGAPEIELALRLTEYSRTLSGMESYCIRAFADAMEVIPSTLAENAGLNPISTVTELRNRHAQGEKTTGINVRKGGISNILEEQVVQPLLVSVSALTLATETVRSILKIDDVVNTR

Experiments:
Assay in all cases: cross-linking
[1] = target: B5
[2] = target: CCT1, subunit of bovine TRiC/CCT (bTRiC) (Bos taurus, UniProt Q32L40 1-556)
[3] = target: T1, CCT8, subunit of bovine TRiC/CCT (bTRiC) (Bos taurus, UniProt Q3ZCI9 1-548)
T1 sequence (looked up): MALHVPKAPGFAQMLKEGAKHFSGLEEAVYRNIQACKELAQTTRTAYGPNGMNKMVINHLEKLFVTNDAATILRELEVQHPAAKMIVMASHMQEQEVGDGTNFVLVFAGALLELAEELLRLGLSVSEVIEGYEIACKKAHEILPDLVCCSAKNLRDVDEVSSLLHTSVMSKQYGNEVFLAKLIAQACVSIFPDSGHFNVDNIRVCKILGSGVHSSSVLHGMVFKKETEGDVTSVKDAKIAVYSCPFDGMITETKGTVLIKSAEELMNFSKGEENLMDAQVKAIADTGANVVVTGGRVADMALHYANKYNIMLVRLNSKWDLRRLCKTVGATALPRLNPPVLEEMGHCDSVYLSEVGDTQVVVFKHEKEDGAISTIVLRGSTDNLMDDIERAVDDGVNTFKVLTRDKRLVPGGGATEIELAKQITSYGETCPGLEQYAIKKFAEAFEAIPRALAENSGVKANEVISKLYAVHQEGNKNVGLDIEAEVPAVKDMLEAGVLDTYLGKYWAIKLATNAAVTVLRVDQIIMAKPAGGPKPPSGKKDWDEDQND

[4] = target: CCT4, subunit of yeast TRiC/CCT (yTRiC) (Saccharomyces cerevisiae, UniProt P39078 1-528)
CCT4, subunit of yeast TRiC/CCT (yTRiC), sequence (P39078 whole entry): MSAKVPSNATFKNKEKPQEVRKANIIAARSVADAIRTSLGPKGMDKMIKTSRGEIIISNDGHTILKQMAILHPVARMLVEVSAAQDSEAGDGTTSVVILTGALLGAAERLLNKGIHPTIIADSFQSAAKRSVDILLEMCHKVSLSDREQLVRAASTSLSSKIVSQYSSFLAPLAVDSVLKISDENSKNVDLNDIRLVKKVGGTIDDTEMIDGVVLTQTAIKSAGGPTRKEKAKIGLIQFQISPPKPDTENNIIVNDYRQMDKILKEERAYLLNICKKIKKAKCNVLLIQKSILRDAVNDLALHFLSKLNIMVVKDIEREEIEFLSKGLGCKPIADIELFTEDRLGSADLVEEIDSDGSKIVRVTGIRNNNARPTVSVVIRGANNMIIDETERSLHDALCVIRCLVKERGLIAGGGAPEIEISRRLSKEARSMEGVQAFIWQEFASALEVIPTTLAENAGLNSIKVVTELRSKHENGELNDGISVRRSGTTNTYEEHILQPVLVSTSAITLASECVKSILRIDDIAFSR

CCT1, subunit of bovine TRiC/CCT (bTRiC), sequence (Q32L40 whole entry): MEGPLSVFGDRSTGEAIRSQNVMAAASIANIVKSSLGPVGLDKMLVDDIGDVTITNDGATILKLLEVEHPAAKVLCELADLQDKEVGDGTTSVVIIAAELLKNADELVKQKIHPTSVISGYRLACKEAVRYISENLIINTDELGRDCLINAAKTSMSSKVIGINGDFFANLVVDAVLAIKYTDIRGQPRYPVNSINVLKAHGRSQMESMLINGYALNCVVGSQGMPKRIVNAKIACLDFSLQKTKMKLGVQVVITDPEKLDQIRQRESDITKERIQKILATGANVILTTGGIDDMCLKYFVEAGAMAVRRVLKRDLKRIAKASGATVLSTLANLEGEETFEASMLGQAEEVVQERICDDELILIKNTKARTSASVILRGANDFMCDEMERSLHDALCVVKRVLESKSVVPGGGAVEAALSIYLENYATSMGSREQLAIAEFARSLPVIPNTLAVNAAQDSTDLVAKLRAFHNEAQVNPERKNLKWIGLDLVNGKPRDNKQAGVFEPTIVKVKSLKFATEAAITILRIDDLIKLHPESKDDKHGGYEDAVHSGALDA

binding result [1]: binds
B1: CCT2, subunit of bovine TRiC/CCT (bTRiC) (natural protein, Bos taurus, UniProt Q3ZBH0 1-535, looked up)
chain: MASLSLAPVNIFKAGADEERAETARLSSFIGAIAIGDLVKSTLGPKGMDKILLSSGRDASLMVTNDGATILKNIGVDNPAAKVLVDMSRVQDDEVGDGTTSVTVLAAELLREAESLIAKKIHPQTIIAGWREATKAARQALLNSAVDHGSDEVKFRQDLMNIAGTTLSSKLLTHHKDHFTKLAVEAVLRLKGSGNLEAIHVIKKLGGSLADSYLDEGFLLDKKIGVNQPKRIENAKILIANTGMDTDKIKIFGSRVRVDSTAKVAEIEHAEKEKMKEKVERILKHGINCFINRQLIYNYPEQLFGAAGVMAIEHADFVGVERLALVTGGEIASTFDHPELVKLGSCKLIEEVMIGEDKLIHFSGVALGEACTIVLRGATQQILDEAERSLHDALCVLAQTVKDSRTVYGGGCSEMLMAHAVTQLASRTPGKEAVAMESYAKALRMLPTIIADNAGYDSADLVAQLRAAHSEGKTTAGLDMKEGTIGDMSVLGITESFQVKRQVLLSAAEAAEVILRVDNIIKAAPRKRVPDHHPC

binding result [2]: binds
B2: CCT3, subunit of bovine TRiC/CCT (bTRiC) (natural protein, Bos taurus, UniProt Q3T0K2 1-545, looked up)
chain: MMGHRPVLVLSQNTKRESGRKVQSGNINAAKTIADIIRTCLGPKSMMKMLLDPMGGIVMTNDGNAILREIQVQHPAAKSMIEISRTQDEEVGDGTTSVIILAGEMLSVAEHFLEQQMHPTVVISAYRKALDDMISTLKKISIPVDTSNRDTMLNIINSSITTKVISRWSSLACNIALDAVKTVQFEENGRKEIDIKKYARVEKIPGGIIEDSCVLRGVMINKDVTHPRMRRYIKNPRIVLLDSSLEYKKGESQTDIEITREEDFTRILQMEEEYIQQLCEDIIQLKPDVVITEKGISDLAQHYLMRANITAIRRVRKTDNNRIARACGARIVSRPEELREEDVGTGAGLLEIKKIGDEYFTFITECKDPKACTILLRGASKEILSEVERNLQDAMQVCRNVLLDPQLVPGGGASEMAVAHALTEKSKAMTGVEQWPYRAVAQALEVIPRTLIQNCGASTIRLLTSLRAKHTQENCETWGVNGETGTLVDMKELGIWEPLAVKLQTYKTAVETAVLLLRIDDIVSGHKKKGDDQSRQGGAPDAGQE

binding result [3]: binds
B3: CCT7, subunit of bovine TRiC/CCT (bTRiC) (natural protein, Bos taurus, UniProt Q2NKZ1 1-543, looked up)
chain: MMPTPVILLKEGTDSSQGIPQLVSNISACQVIAEAVRTTLGPRGMDKLIVDGRGKATISNDGATILKLLDVVHPAAKTLVDIAKSQDAEVGDGTTSVTLLAAEFLKQVKPYVEEGLHPQIIIRAFRTATQLAVNKIKEIAVTVKKEDKVEQRKLLEKCAMTALSSKLISQQKAFFAKMVVDAVMMLDDLLQLKMIGIKKVQGGALEESQLVAGVAFKKTFSYAGFEMQPKKYHNPMIALLNVELELKAEKDNAEIRVHTVEDYQAIVDAEWNILYDKLEKIHHSGAKVVLSKLPIGDVATQYFADRDMFCAGRVPEEDLKRTMMACGGSIQTSVNALSSDVLGRCQVFEETQIGGERYNFFTGCPKAKTCTIILRGGAEQFMEETERSLHDAIMIVRRAIKNDSVVAGGGAIEMELSKYLRDYSRTIPGKQQLLIGAYAKALEIIPRQLCDNAGFDATNILNKLRARHAQGGMWYGVDINTEDIADNFEAFVWEPAMVRINALTAASEAACLIVSVDETIKNPRSTVDASPAAGRGRGRGRLH

binding result [4]: binds
B4: CCT2, subunit of yeast TRiC/CCT (yTRiC) (natural protein, Saccharomyces cerevisiae, UniProt P39076 1-527, looked up)
chain: MSVQIFGDQVTEERAENARLSAFVGAIAVGDLVKSTLGPKGMDKLLQSASSNTCMVTNDGATILKSIPLDNPAAKVLVNISKVQDDEVGDGTTSVTVLSAELLREAEKLIDQSKIHPQTIIEGYRLASAAALDALTKAAVDNSHDKTMFREDLIHIAKTTLSSKILSQDKDHFAELATNAILRLKGSTNLEHIQIIKILGGKLSDSFLDEGFILAKKFGNNQPKRIENAKILIANTTLDTDKVKIFGTKFKVDSTAKLAQLEKAEREKMKNKIAKISKFGINTFINRQLIYDYPEQLFTDLGINSIEHADFEGVERLALVTGGEVVSTFDEPSKCKLGECDVIEEIMLGEQPFLKFSGCKAGEACTIVLRGATDQTLDEAERSLHDALSVLSQTTKETRTVLGGGCAEMVMSKAVDTEAQNIDGKKSLAVEAFARALRQLPTILADNAGFDSSELVSKLRSSIYNGISTSGLDLNNGTIADMRQLGIVESYKLKRAVVSSASEAAEVLLRVDNIIRARPRTANRQHM

Binder: B5
binding result [2]: binds
